Test results as given in the DeepSol protein solubility set.

Assay: soluble on expression in E. coli; label from the status in PepcDB or PDB records

With “MNDETPRCPYNSLYKPLNLIKSKPDGCFKHNGQCTYGKNLVESVDDGNSRTPYNSIYEPLSLNKPKPDGRSSNGKKPVDNEYVNLPVLSEEQKLADKLAAKLRKLEVKEPKSKKRGSKERKKKKSEPVESTYESLATIEGSTNYSGPVTTESLESNVKFHHASQTAYIGVYSSADAEAQVKNRGEFALYHLFEVGNGIDHLTATLPLMLVYYTTTKKHRHYPVRESGGKGMVQYSVDCGYPIVRKHYSLNQLVQYYKSFGSIQMKQEDTCSEEFSWWLE” as the sequence, how does the “soluble on expression in E. coli” value read?
The value was “not soluble”.

Which “soluble on expression in E. coli” value does the source give for “MGSDKIHHHHHHADVIVPEQPVPVVAVPAFSWAGFYLGGQVGNFSSKTALSYLGDEKTGKWTPVKKEFVPKLSGFVGGIYAGSNFDINNGFIIGIDTDVMWSGKKNTKIITWPEVPPEVSSEKKVERVSVGTNQDTSAEVTNGALSHTLKQKWFGATRVKVGFVVDRMMPYIAGGVAYTQLQNIFEKEADKTKKAIDISNVIHDEKKTMVGYTLGGGIDFAMTDNVIVRAEYRYSDYGKKKFADEKIEMRYKTNDFRVGVAYKF” here?
The value was “not soluble”.

With “MSLEKVQLPSVPAFKGHSFLAFPTLRAYHTLRLAMEFRALETEGLLLYNGNARGKDFLALALLDGHVQFRFDTGSGPAVLTSLVPVEPGRWHRLELSRHWRQGTLSVDGEAPVVGESPSGTDGLNLDTKLYVGGLPEEQVATVLDRTSVGIGLKGCIRMLDINNQQLELSDWQRAVVQSSGVGEEGHHHHHH” as the sequence, how does the “soluble on expression in E. coli” value read?
Its value is “soluble”.

With “MGSDKIHHHHHHMRKMRKASRLFEIIQILRLARQPVTAAMIAERLEVTIRSIYRDIAALQAMRVPIEGGRGIGYILRPGFDLPPLMFSIEEMEAIVLSLALLERTGDDELKQAAKRVSSKIAGAVPPPLRQTFDANALHAWGFAAPSAGTIDLALVRRAIRDEEKLDLSYRDEAGRTTQRIIRPIALIYYAEAVNTVAWCELRQAIRNFRSDRIEGCQPTGLHFKGEGDRLRQIWVEGWETPAVGG” as the sequence, how does the “soluble on expression in E. coli” value read?
Its value is “not soluble”.

For “MSLDNLNLIVSLKDGGLLHFKRDEELGEINVFNFQEQGTLIPFLGFFGSGKQKDVVLDGVSSNSIVDALQIGGSGVVITLSVNKVLKLWNLDGHQNLSSLTIASDDNTWLPTIPSKYLKSYDQEDGKTIITLFINTKSGDSSKSMFVFKSFELESSNLHDLSDLSFQPELPNSLLFSSDVFYHESNFQNTIWFIQDYEVVGFGTSQLKYYILWKSNTSSILVEYTINPVNGAILSEGHHHHHH”, which “soluble on expression in E. coli” value is on record?
Its value is “not soluble”.

With “MGHHHHHHSHMAALKEDRSYGLSCGRVSDGSKVSVFHVKLTDSALRAFESYRARQDSVSLRPSIRFQGSQGHISIPQPDCPAEARTFSFYLSNIGRDNPQGSFDCIQQYVSSHGEVHLDCLGSIQDKITVCATDDSYQKARQSMAQAEEETRSRSAIVIKAGGRYLGKKVQFRK” as the sequence, how does the “soluble on expression in E. coli” value read?
The value was “not soluble”.

Which “soluble on expression in E. coli” value does the source give for “MSLEKPKYKRIVLKLSGEALAGEQGNGINPTVIQSIAKQVKEIAELEVEVAVVVGGGNLWRGKTGSDLGMDRATADYMGMLATVMNSLALQDSLETLGIQSRVQTSIEMRQVAEPYIRRKAIRHLEKKRVVIFAAGTGNPYFSTDTTAALRAAEIEADVILMAKNNVDGVYNADPRKDESAVKYESLSYLDVLKDGLEVMDSTASSLCMDNDIPLIVFSIMEEGNIKRAVIGESIGTIVRGKEGHHHHHH” here?
Its value is “soluble”.

With “MGKTKPVLQCTLCGALVDSGNGLPMHEETYAVLRVEAMPRQWRQALENVMAKTIASPPPSAMPGTDPLEAVWFTPWRTNSWQPNTVDCRQVLNGTLDELRVLSQEVAALAATQGFSACVEFV” as the sequence, how does the “soluble on expression in E. coli” value read?
The value was “not soluble”.

Which “soluble on expression in E. coli” value does the source give for “RLHRLPRDCQELFQVGERQSGLFEIQPQGSPPFLVNCKMTSDGGWTVIQRRHDGSVDFNRPWEAYKAGFGDPHGEFWLGLEKVHSITGDRNSRLAVQLRDWDGNAELLQFSVHLGGEDTAYSLQLTAPVAGQLGATTVPPSGLSVPFSTWDQDHDLRRDKNCAKSLSGGWWFGTCSHSNLNGQYFRSIPQQRQKLKKGIFWKTWRGRYYPLQATTMLIQPMAAEAAS” here?
Its value is “soluble”.

For “MKIKTLLSIITAMALLILGTEVATAQSTGVPTIDSGSPESNQPLNDTMITTKVKAELAIAEGIKSGDISVETVNGVVILTGTQPNEMLIKKAEEVAKSVKDVKQVDISGLTVNTTTAD”, which “soluble on expression in E. coli” value is on record?
Its value is “not soluble”.

Which “soluble on expression in E. coli” value does the source give for “PEDPSDLLQHVKFQSSNFENILTWDSGPEGTPDTVYSIEYKTYGERDWVAKKGCQRITRKSCNLTVETGNLTELYYARVTAVSAGGRSATKMTDRFSSLQHTTLKPPDVTCISKVRSIQMIVHPTPTPIRAGDGHRLTLEDIFHDLFYHLELQVNRTYQMHLGGKQREYEFFGLTPDTEFLGTIMILVPTWAKESAPYMCRVKTLPDRTWT” here?
Its value is “soluble”.

Which “soluble on expression in E. coli” value does the source give for “MSLKIILPVKPISQLFPIPFVMGCEGVSAAMLLQFNNYDIKATQIMSHWPKHPTNPYKGYVGHPLLVKFGHHQTIFPDAFAPFLKQYDSRIVDGTGTSLNQLEKFIDKGQPVIIYHTSLGSKPLRRVFHFDNQPTKLVSNIHVTLLIGYDDDYYYYIDPLWSRLSKFVIFPSIIPNSKQIIKIKKHTLENSYNAPGKKCIYIDNEGHHHHHH” here?
The value was “not soluble”.

Which “soluble on expression in E. coli” value does the source give for “MDQLSEKQIWYYHIIPEYQTEKSFYACVRRSGMIKFDTFYFPHMLSARETQRSIKFGDGVWSGCLYDPDIYTDGKISIQGVGGVLFPREAEIGGCVCLCLIFLIKLGLSTKYMKSHVSFDVSCDL” here?
Its value is “not soluble”.

With “MGSDKIHHHHHHMKAVYPGSFDPITLGHVDIIKRALSIFDELVVLVTENPRKKCMFTLEERKKLIEEVLSDLDGVKVDVHHGLLVDYLKKHGIKVLVRGLRAVTDYEYELQMALANKKLYSDLETVFLIASEKFSFISSSLVKEVALYGGDVTEWVPPEVARALNEKLKEGKR” as the sequence, how does the “soluble on expression in E. coli” value read?
The value was “soluble”.

For “MAHHHHHHMRPVTRSPLLVAAVVVAATLCLNGDNAILSLSSGVRLAHANGPITKDQCFILNPQPTVTSCNAYLPPIVDLYGSLPYDTTPDYADCVKERCLCTGAATSTAIKTSGFFCNSSGWMESGYTTCNVLVDCFSKFWRCINRALYMRYLTDRENLDSGEVDLITDLISHGSHPGEPFDITDTFRSCRLMMCAAANSRQNCGLVTCLPNYTQCDEYIRPPPLPYTHPLCTQGCRAALLMMALTIAAVSFSACCFCCCPAQVRISEPVLMEEVPAHKVELSSMRSEVEAQARRHRTNDPYTQ”, which “soluble on expression in E. coli” value is on record?
The value was “not soluble”.

With “MDETTIRRLTEEDVDIFRAMRLEALRTEPAAYASTAADWEKLSADEWRTRLTQNNVFAAFWNDAPVGIMGLMRQGSSKMAHRATLIMVYVRAEARGTGIARALLEAVKSFAGDNGIRQIELAVSAENPAAASFYKRAGFSQIGCVPGGILHEGREIDDIMMACRVDAEGKE” as the sequence, how does the “soluble on expression in E. coli” value read?
The value was “not soluble”.

For “MGSDKIHHHHHHMKAVVIGGGVFGSLIARELTKYDLEVTLIEKNLDVGWGVTKANSAVVHAGYDDPPESVRAQFCASGNAMYEDLSKELDFDFKRIGSFVVAFNDEELKELERLLKQGEENGVPGLTILERDEVLSMEPNLNPEVKYALYAPTAGITEPWMVAIAAVENAVQNGLKLVLGESVVGFEKVNGRVRKVHTSRGEYEADIVINCAGLHADEIAKLAGAEYVPLHPRKGEYILLDKKLQGLVKRVIFPTPTKISKGILVLPTVDGGILLGPTAEDLPEEMKDRPITTREGLEKVREFTRRLVPSLDFSLVVKTFSGLRPESPQKDFFIKVSETVKNFVNVMATRSPGLTAAPAVAKYVVEELIQEKMRIPLEKKKDFKPERKRIVHYSELPLEEWRREIERDPRAGRLVCFCNEVTEKEIVEAIRRGARTLNGVKFRTRAMFGRCQGGFCMARILKILERELGVDMSEIKMKSENSWVVNGKVRE”, which “soluble on expression in E. coli” value is on record?
Its value is “not soluble”.

Which “soluble on expression in E. coli” value does the source give for “MIEWQDLHHSELSVSQLYALLQLRCAVFVVEQNCPYQDIDGDDLTGDNRHILGWKNDELVAYARILKSDDDLEPVVIGRVIVSEALRGEKVGQQLMSKTLETCTHHWPDKPVYLGAQAHLQNFYQSFGFIPVTEVYEEDGIPHIGMAREVIQALEHHHHHH” here?
Its value is “not soluble”.

For “MASEVRIKLLLECTECKRRNYATEKNKRNTPNKLELRKYCPWCRKHTVHREVKI”, which “soluble on expression in E. coli” value is on record?
The value was “soluble”.

With “MIEEPVDDVIKHGPKTGTPETKTVEIPFETKREFNPKLQPGEERVKQEGQPGSKTITTPITVNPLTGEKVGEGQPTEEITKQPVDKIVEFGGEKPKDPKGPENPEKPSRPTHPSGPVNPNNPGLSKDRAKPNGPVHSMDKNDKVKKSKIAKESVANQEKKRAELPKTGLESTQKGLIFSSIIGIAGLMLLARRRKN” as the sequence, how does the “soluble on expression in E. coli” value read?
Its value is “not soluble”.
